B1: 5'FAM-ssDNA57 (ssDNA)
DNA: TGGAGAATCCCGGTGCCGAGGCCGCTCAATTGGTCGTAGACAGCTCTAGCACCGCTT

Key:
SAMHD1 T592E = SAMHD1 T592E (Homo sapiens, UniProt Q9Y3Z3 1-626, T592E); experiment: fluorescence anisotropy
SAMHD1 wild-type = SAMHD1 wild-type (Homo sapiens, UniProt Q9Y3Z3 1-626); experiment: fluorescence anisotropy
Chain of SAMHD1 wild-type (Q9Y3Z3 whole entry): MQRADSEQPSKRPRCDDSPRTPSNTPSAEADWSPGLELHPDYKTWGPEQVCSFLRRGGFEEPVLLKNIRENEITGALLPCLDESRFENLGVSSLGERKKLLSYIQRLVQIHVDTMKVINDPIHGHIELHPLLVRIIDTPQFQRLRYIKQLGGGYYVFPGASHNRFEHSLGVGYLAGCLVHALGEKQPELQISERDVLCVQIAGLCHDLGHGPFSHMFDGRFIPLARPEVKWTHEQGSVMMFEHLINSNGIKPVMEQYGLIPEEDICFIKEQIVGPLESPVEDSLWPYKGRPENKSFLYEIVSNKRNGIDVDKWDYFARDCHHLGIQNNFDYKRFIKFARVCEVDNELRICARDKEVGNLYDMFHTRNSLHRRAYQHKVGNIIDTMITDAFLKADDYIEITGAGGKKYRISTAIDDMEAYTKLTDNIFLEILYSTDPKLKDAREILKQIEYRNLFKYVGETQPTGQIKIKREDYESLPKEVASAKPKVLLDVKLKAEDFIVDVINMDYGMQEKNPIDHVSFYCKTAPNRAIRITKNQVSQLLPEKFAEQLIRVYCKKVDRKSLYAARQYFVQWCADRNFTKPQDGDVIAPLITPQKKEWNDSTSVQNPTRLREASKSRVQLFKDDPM

Chain of SAMHD1 T592E (Q9Y3Z3 whole entry T592E): as the sequence (Q9Y3Z3 whole entry) above, with T592E counted along it

Row | Binder | Kd (SAMHD1 T592E) [nM] | Kd (SAMHD1 wild-type) [nM]
1 | CGCCT (XNA, phosphorothioate at every internucleotide linkage, mixed Rp/Sp) [5'FAM-PsDNA5] | 283 ± 8 | 119 ± 7
2 | B1 | 431 ± 25 | 

— PMC9303311
